According to the supplement of paper PMC9170038:

Tested on: MS2 coat protein
Assay: apparent KD of MS2 coat protein; designed switch direction (-1 OFF switch, 1 ON switch): -1; higher = weaker reporter binding
Summary of the method: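 The buffer was Tris-HCl pH 7.5 with KCl, MgCl2, BSA, DTT, tRNA and Tween-20. In it, SNAP-549-labelled MS2 coat protein was titrated in doubling steps from 0.7 or 1.5 nM to 3 µM over chip-bound RNA switches transcribed by stalled E. coli RNA polymerase on Illumina chips. Apparent KD is the per-design median over clusters of curve fits to normalised fluorescence.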

[1] = Eterna round: R95, input ligand: FMN 200 uM
[2] = Eterna round: R95, input ligand: microRNA oligo, concentration not stated
[3] = Eterna round: R95, input ligand: none
[4] = input ligand: microRNA oligo, concentration not stated

Sequence | apparent KD of MS2 coat protein [1] [nM] | apparent KD of MS2 coat protein [2] [nM] | apparent KD of MS2 coat protein [3] [nM] | apparent KD of MS2 coat protein (input ligand: FMN 200 uM) [nM] | apparent KD of MS2 coat protein (input ligand: none) [nM] | apparent KD of MS2 coat protein [4] [nM]
AAAUCCGCUGAGGAUAUUAUCAGUGAGAGCUGAUGAGAAGGCGGUACAUGAGGAUCACCCAUGUCUAUGGGCAA [Ex-6 Malc#25] (puzzle: Exclusion 6) | 358 | 208 | 295 | – | – | –
AAAUCGGAGGAGGAUAUCGUACAGGAAACGGUGCGAGAAGGUUUCACAUGAGGAUCACCCAUGUCAAAUAGCGA [EX6 #58] (Eterna round: R97, puzzle: Exclusion 6) | – | – | – | 21 | 16.4 | –
AAAUGCAAGUAAAGAUCUUACAUGAGGAUCACCCAUGUGCUCGUCUUAUAAAGUACUAUCACGAAAGUGAUAGUACA [Sensor 3, v1 - 27] (puzzle: Sensor v3, turn-off variant 1) | 18.5 | 76.9 | 19.3 | – | – | –
AAAUUAGCAAGUAGGUCCGACAUGAGGAUCACCCAUGUUAUCUGAAAUAACGCUGCAUGAAAGUGCGCUCGUCUUAG [Sensor-V1 #9] (Eterna round: R97, puzzle: Sensor, turn-off variant 1) | – | – | – | 65.3 | 73.9 | –
AAAUUGCUAGAGGAUAUCGGAUAGAAUUUAUUACGAGAAGGUUAGACAUGAGGAUCACCCAUGUUCUGUUGGGA [EX6 #23] (Eterna round: R97, puzzle: Exclusion 6) | – | – | – | 70.1 | 29.1 | –
AACAACUCUGUGAGGAUAUGCAAUUGUUGAUCAAGGCAGAAGGCACAUGAGGAUCACCCAUGUUCCUACAAGGG [Reatanan] (puzzle: Brourd's mod of Exclusion 4) | – | 46.5 | – | – | – | –
AACAAGUGAGGAUAUGAACCACUUGCCCACGCAUGCGUGGAUCAGAAGGCACUUGAGGAUCACCCAAGUCCUAA [Texeusso] (Eterna round: R97, puzzle: Exclusion 4) | – | – | – | 49.7 | 21.3 | –
AACAUCGUAGGAUAUUCGUGCUCAGACAUGAGGAUCACCCAUGUUUGGUGGGUUGGAGAAGGAGAAGGGCGAUGGA [EX5 #18] (Eterna round: R97, puzzle: Exclusion 5) | – | – | – | 67.9 | 92.8 | –
AACAUGGUAAAGGAUAUUGUCGCAGAAUGCGAUCAAGAAGGUUACACAUGAGGAUCACCCAUGUGGAAUCCAUC [Eternabot (Original) Solution 24] (Eterna round: R97, puzzle: Exclusion 6) | – | – | – | 63.2 | 17.2 | –
AACCAGCGAGGAUAUUGUUGAUAAAACAUGAGGAUCACCCAUGUCACGUGAUCUUCCCAACAAGAAGGUGCACUAA [Xeoratdior] (Eterna round: R97, puzzle: Exclusion 5) | – | – | – | 652 | 301 | –
AACCCUCGUCAAGGAUAUACAUAGAAAAGCUUGGUAGAAGGUGACAUGAGGAUCACCCAUGUAAAAGGCCUGUCCAUUCAGGCC [Isonce] (Eterna round: R96, puzzle: Exclusion NG 1) | – | – | – | 96.4 | 78.1 | 67.8
AACCCUGAUGACAAAUUACAUGAGGAUCACCCAUGUGCCUCACAGGAUAUCCCAGCACGUCGCUAGGAGAAGGGUGACGCGCCA [Tienen] (Eterna round: R96, puzzle: Exclusion NG 3) | – | – | – | 37.5 | 30 | 25.1
AACCGCAUAGGAUAUCGAGCAGAGGACUUGAGGAUCACCCAAGUCCUUGAGUUCUUUGUCCGAGAAGGAUGAACAU [Ususrace] (Eterna round: R97, puzzle: Exclusion 5) | – | – | – | 13.7 | 14.6 | –
AACCUGAGGCAAAGCUUUAGGUGUACAUGAGGAUCACCCAUGUAGGAUAUGGUAGGCAAAGCUUACCAGAAGGACAUUGGCGUA [Mat - Exclusion NG 3 - Mod of JL - D41] (Eterna round: R96, puzzle: Exclusion NG 3) | – | – | – | 418 | 119 | 93.8
AACCUGAGGCUUUGCUUUAGGUGUACAUGAGGAUCACCCAUGUAGGAUAUGGUAGGCAAAGCUUACCAGAAGGACAUGUUAAUU [Mat - Exclusion NG 3 - Mod of JL - D37] (Eterna round: R96, puzzle: Exclusion NG 3) | – | – | – | 122 | 59.3 | 44.3
AACCUGGCUGUUCACAGGAACAUGAGGAUCACCCAUGUCGUGGGUAGAUCCCUCCCUGGGAAAUCUGCUCGUCUUAU [Cac Sensor turn off v1 sub13] (Eterna round: R97, puzzle: Sensor, turn-off variant 1) | – | – | – | 34.6 | 34.2 | –
AACCUUUAGUUAGGAUAUCGCAUCACCGUCAAGUGAGAAGGGACAUGAGGAUCACCCAUGUCUUCCGUGGGCUACACUGCUUCU [Eternabot solution 5] (Eterna round: R96, puzzle: Exclusion NG 1) | – | – | – | 19 | 27.4 | 19.4
AACGUCGAAGGAUAUACAUGAGGAUCACCCAUGUGGGACCUGUAAUCUCACCCAUCGUGUAGAAGGUUGAGGUA [Learberi] (Eterna round: R97, puzzle: Exclusion 3) | – | – | – | 29.9 | 35.6 | –
AACGUGCAGCUUUGCUGUACGCGUACAUGAGGAUCACCCAUGUAGGAUAUGGUACGCAAAGCGUGCUAGAAGGAUAUGGAGAAA [Mat - Exclusion NG 3 - Mod of JL - D82] (Eterna round: R96, puzzle: Exclusion NG 3) | – | – | – | 14.7 | 16.2 | 11.5
AACGUGGCAAAGGAUAUCCACACGGCAAAGCCGGGAGAAGGUUGCACAUGAGGAUCACCCAUGUGAACCAAACA [Onsozamati] (puzzle: Exclusion 6) | – | 13.6 | – | – | – | –
AACUGGACAGGAUAUGUUCUUGAGCACUUGAGGAUCACCCAAGUCAUCAAGAACUCAGGCACAGAAGGGUUUAUGU [salish99_ex5_r4_002] (Eterna round: R97, puzzle: Exclusion 5) | – | – | – | 45.9 | 13.6 | –
AACUUACAUGAGGAUCACCCAUGUCAGGAUAUCGAAAUUGGCCUGCAAUUACAGGCGACGAGAAGGGACGUUUU [EX1 B.24] (Eterna round: R97, puzzle: Exclusion 1) | – | – | – | 29.3 | 16.9 | –
AAGAAACAUGAGGAUCACCCAUGUGAGGAUAUGAAAAAGAAAAGAAAAGAAAGAAGAAUCAGAAGGCACAAAGG [Nebkaure Khety II] (Eterna round: R96, puzzle: Exclusion 1) | – | – | – | – | – | 24.3
